Test results as given in PMC6411836.

What was measured:
[1] = target: SLX1 endogenous in Xenopus egg extract (Xenopus laevis (endogenous in Xenopus egg extract)) (UniProt Q0IH86); experiment: co-depletion by immunodepletion
[2] = target: SLX4 endogenous in Xenopus egg extract (Xenopus laevis (endogenous in Xenopus egg extract)); experiment: co-depletion by immunodepletion

UniProt Q0IH86, sequence (Q0IH86 whole entry): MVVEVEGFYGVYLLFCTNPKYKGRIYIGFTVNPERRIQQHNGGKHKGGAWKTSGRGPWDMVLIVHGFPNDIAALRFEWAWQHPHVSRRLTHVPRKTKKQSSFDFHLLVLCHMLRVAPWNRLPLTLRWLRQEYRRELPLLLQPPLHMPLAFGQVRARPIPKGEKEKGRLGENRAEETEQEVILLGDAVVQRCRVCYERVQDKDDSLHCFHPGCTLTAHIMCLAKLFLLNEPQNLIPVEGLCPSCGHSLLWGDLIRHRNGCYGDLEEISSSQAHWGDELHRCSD

For “SLX4 endogenous in Xenopus egg extract (natural protein)”, which percent co-depleted [1] is on record?
The percent co-depleted was 90%.

Which results are given for “XPF-ERCC1 endogenous in Xenopus egg extract (complex)”?
percent co-depleted [1]: 50%; percent co-depleted [2]: 50%
